This note sets out measurements from PMC2174006 (The Journal of Cell Biology, 2002).

For this assay, the target named is recombinant murine [32P]RIIα (murine, UniProt P12367 1-401, 32P-labelled). In words: peptide or protein array.

No end group written: not given here.

Sequence of recombinant murine [32P]RIIα (P12367 whole entry): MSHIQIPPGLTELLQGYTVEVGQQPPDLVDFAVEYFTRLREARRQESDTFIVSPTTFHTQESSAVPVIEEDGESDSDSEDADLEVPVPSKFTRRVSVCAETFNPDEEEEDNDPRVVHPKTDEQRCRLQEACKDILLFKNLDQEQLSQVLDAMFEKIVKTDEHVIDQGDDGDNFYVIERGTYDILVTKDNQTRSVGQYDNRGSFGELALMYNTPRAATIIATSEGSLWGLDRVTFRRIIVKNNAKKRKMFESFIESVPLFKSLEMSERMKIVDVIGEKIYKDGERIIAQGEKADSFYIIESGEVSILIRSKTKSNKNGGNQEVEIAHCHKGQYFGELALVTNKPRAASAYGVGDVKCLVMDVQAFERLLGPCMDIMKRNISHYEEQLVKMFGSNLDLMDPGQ

Regarding Ac-NINIEEAARFLVEKILVNHQ [Rab32 peptide 178–197], the binding result is reported as “binds”.
